The record followed here is PMC9570017, “Unorthodox PCNA Binding by Chromatin Assembly Factor 1” (International Journal of Molecular Sciences, 2022).

One assay concerns PCNA. The experiment in a line: Crystal model of p150 PIP bound to PCNA. The assay is classed as binding, human. Particulars: synthetic 20-amino acid peptide, crystals at pH 5, resolution 46.2–2.4 Å; only RFF residues modelled; model could not be refined further. Here is the method:
In order to better understand the molecular basis of CAF-1 binding to PCNA, we determined the crystal model of a complex between a synthetic peptide encompassing the p150 PIP and PCNA. The crystal model was solved using molecular replacement from a previously published PCNA structure (Table 1 and Materials and Methods). PCNA samples were incubated with a 20-amino acid PIP derived from CAF-1 p150. The PIP used for crystallization, […] (PIP residues in italics), spanned the entire PIP region.
A CAF-1 p150 synthetic peptide with the sequence […] was synthesized at the University of Cambridge in-house protein and nucleic acid facility (PNAC). For use in crystallization trials, the synthetic peptide was dissolved in demineralized water to a concentration of 23 mM. Initial crystallization conditions were further refined and optimized with the help of the PACT suite (Qiagen) and Additive Screen (Hampton Research), which contain multiple reagent libraries that enhance the solubility and crystallization of biological macromolecules. […]
The eluate was subsequently purified with a Superdex™ 200 gel filtration column (GE Healthcare) in gel filtration buffer 20 mM Tris pH 7.5, 150 mM NaCl, 1 mM DTT. The fractions corresponding to PCNA homotrimer were pooled, concentrated with an amicon concentrator with 3 kDa MWCO, quantified using absorbance at A280 nm, and stored at - […]

Assay [1] relates to DNA replication-coupled nucleosome assembly (S100 extract from human HEK-293 cells). As to the kind of experiment: Replication-dependent nucleosome assembly assay (SV40 DNA replication, S100 extract). The settings on record: increasing amounts of in vitro translated p150 (rCAF-1: positive control), 45 min + 45 min at 37 °C, autoradiography. Format: biochemical. An excerpt: We next sought to compare the activities of CAF-1 p150, wild-type, and the R426D mutant in a replication-coupled chromatin assembly assay. As a first step to performing this assay, we expressed CAF-1 p150 wild-type and the R426D mutant in a rabbit reticulocyte lysate coupled transcription and translation system and labelled the proteins with [^35S]-methionine. […] In the replication coupled chromatin assembly system, an S100 extract from cultured human HEK-293 cells provides all the cellular DNA replication enzymes and histones but lacks CAF-1 p150 [37]. To this extract, a plasmid containing an SV40 origin of replication and the viral replication protein, SV40 large T antigen, were added to support SV40 DNA replication. Radiolabeled dATP was also added to visualize the replication products by autoradiography.
In contrast, when the recombinant CAF1 protein (p150, p60, p48) or the p150 subunit alone are added, they bind to histones in the S100 extract and promote nucleosome assembly coupled with DNA replication. DNA topoisomerase enzyme I, which is present in the S100 extract (and further supplemented in these assays to ensure sufficient levels), removes the positive supercoiling in the linker DNA that connects nucleosomes, leaving negative supercoiling due to DNA wrapping around histone octamers (evident upon subsequent removal of the histones and electrophoresis).
Replication reactions were assembled as previously reported. […]
The reactions were extracted using phenol, chloroform, and isoamyl alcohol (25:24:1) and the DNA was then precipitated with sodium acetate and ethanol. […] The products of replication were analyzed using a native 1.25% agarose gel in 1X TAE buffer with 1 mM MgCl2, without the addition of ethidium bromide. […] The gel was subsequently imaged and analyzed using a phosphor imager (Typhoon FLA 7000) to visualize the replicated DNA.

Changes are numbered by the printed parent chain. Names and notes keep the numbering of the source. “Also recorded” adds a separate entry of the source.

Turning to IKAEKAEITRFFQKPKTPQA [CAF-1 p150 PIP], in the assay on PCNA, the “binding mode to PCNA in crystal model” value is on record as “one CAF-1 p150 PIP bound to each PCNA monomer; also recorded: forms a cation-π interaction with Tyr 250 of PCNA”.

B1: wild-type CAF-1 p150: full-length mouse CAF-1 p150 expressed in rabbit reticulocyte lysate (protein)
chain: MLEEPEAATRTAAAVDCKDRPGFPVKRLIQARLPFKRLNLVPKEKVEEDTSPKAAVESKVPDLQLSLGTFESQCHTGSHVGLSTKLVGGQGPIDSFLRATIKPVPSVVIIDLTENCSDIPDSPEGHSELSPDTAGVVTTVEGAAKQQEHSAAELCLLETPSDITCHMEEEPGSPGDPKRTGDCQAGSLQSCPELTPGSRTCPTKELSSWSKAGDLLFIEKVPVVVLEDILATKPSIASLPMMSLDRSVTSESEILESCPEDDSILSHSSTNSSSPTSSPEGPSTPPEHRGGRSSPSTPACRVAKNFVKGSTEKGRSKLHRDREQQREEKEKLREEIRRAKEEARKKKEEEKELKEKERREKREKDEKEKAEKQRLKEEKRKERQEALEAKLEEKRKKEEEKRLREEEKRLREEEKRIKAEKAEITRFFQKPKTPQAPKTLAGSCGKFAPFEIKEHMVLAPRCRAALDQDLCDQLDQLLQQQSVASTFLSDLKSRLPLRSGPTRVCGHDTDIMNRDVVIVESSKVDGVSERKKFGRMKLLQFSENHRPAYWGTWNKKTAIIRPRNPWAQDKDLLDYEVDSDDEWEEEEPGESLSHSEGDEDDDVGEDEDEDDGFFVPHGYLSEDEGVTEECADPENHKVHQKLKAKEWDELLAKGKRFRVLQPVHVGCVWASEAANCTSSDLKLLQQFTACLLDVASPDEPEPGASRREKRDQHILAQLLPLLHGNVNGSKVIIHEFQEQCRRGLLTLPSPTPHLQMPNLEDAVAVPSKARLKRLISENSAYEKRPNFRMCWYVHPEVLKSFGQECLPVPCQWTYITTMPSAPREDSGSASTEGPGQSTPMLLKRKPAATMCITQFMKKRRYDGQVGSGDMDGFQADTEEDEEDDTDCMIIDVPDVGSDVSEAPIPAPTLCK
modifications: [35S]-methionine labelled
Consider B1, for which the “supercoiling of replicated DNA / nucleosome assembly” value in assay [1] is “the replication products were supercoiled”.

B2: R426D mutant: full-length mouse CAF-1 p150 with R426D, expressed in rabbit reticulocyte lysate (protein)
chain: B1 chain with R426D
modifications: [35S]-methionine labelled
For the molecule B2, the “supercoiling of replicated DNA / nucleosome assembly” value in assay [1] is “much less supercoiling was observed”; in assay [1] (listed as CAF-1 R426D mutant) it was “deficient in nucleosome assembly”.
